Reference: patent US20260049140A1 (JANUX THERAPEUTICS, published 2026)
Ends that are not written are not given here.

Key:
Test in all cases: competition ELISA, peptide titrated vs TCE binding to captured CD3
TCE-24 = target: T1, TCE-24
T1 construct: anti-CD3 scFv W238A; anti-TROP2 Fab wt; also called 3096

TCE-15 = target: T2, TCE-15
T2 construct: anti-CD3 scFv W112A; anti-TROP2 Fab wt; also called 3087

TCE-19 = target: T3, TCE-19
T3 construct: anti-CD3 scFv W233A; anti-TROP2 Fab wt; also called 3091

TCE-33 = target: T4, TCE-33
T4 construct: anti-CD3 scFv with P41S; E227D set of mutations; anti-TROP2 Fab F108A

TCE-32 = target: T5, TCE-32
T5 construct: anti-CD3 scFv F240A; anti-TROP2 Fab F108A

TCE-30 = target: T6, TCE-30
T6 construct: anti-CD3 scFv H101A; anti-TROP2 Fab F108A

TCE-29 = target: T7, TCE-29
T7 construct: anti-CD3 scFv wt; anti-TROP2 Fab F108A

Measured: IC50

B1: Peptide-11 (peptide)
peptide: GSACLGPEWEVCPY
modifications: cysteine pairing not given here; also: biotinylated when captured in ELISA
notes: also called 1596
> 100 µM: TCE-24 | TCE-15 | TCE-19

B2: Peptide-13 (peptide)
peptide: YLCGPDTDETLACY
modifications: cysteine pairing not given here; also: biotinylated, site not given here
> 100 µM: TCE-33 | TCE-32 | TCE-30 | TCE-29
